# Laboratory results as given in the Human Domainome abundance scans (Beltran et al. 2025).
# ± gives the uncertainty stated by the source.
# Test: abundance fitness (aPCA) (normalised: wild type 0, dead -1); higher = more abundant; growth selection in yeast, the domain comes from the species named
# Conditions: Homo sapiens
row,Substance,abundance fitness
1,"DnaJ homolog subfamily B member 1 K35D, P25685",-0.193 ± 0.13
2,"DnaJ homolog subfamily B member 1 D53M, P25685",-0.124 ± 0.09
3,"DnaJ homolog subfamily B member 1 T8G, P25685",-0.469 ± 0.099
4,"DnaJ homolog subfamily B member 1 L11P, P25685",-0.759 ± 0.12
5,"DnaJ homolog subfamily B member 1 Y5N, P25685",-0.392 ± 0.12
6,"DnaJ homolog subfamily B member 1 R26Q, P25685",-0.019 ± 0.22
7,"DnaJ homolog subfamily B member 1 Y24N, P25685",-0.408 ± 0.11
8,"DnaJ homolog subfamily B member 1 A28I, P25685",0.093 ± 0.095
9,"DnaJ homolog subfamily B member 1 Y52G, P25685",-0.194 ± 0.077
10,"DnaJ homolog subfamily B member 1 R26W, P25685",-0.023 ± 0.081
11,"DnaJ homolog subfamily B member 1 D34S, P25685",0.075 ± 0.061
12,"DnaJ homolog subfamily B member 1 L55T, P25685",-0.636 ± 0.1
13,"DnaJ homolog subfamily B member 1 I48Y, P25685",-0.386 ± 0.2
14,"DnaJ homolog subfamily B member 1 K44G, P25685",-0.39 ± 0.062
15,"DnaJ homolog subfamily B member 1 Y31R, P25685",-0.401 ± 0.086
16,"DnaJ homolog subfamily B member 1 S16G, P25685",-0.074 ± 0.055
17,"DnaJ homolog subfamily B member 1 E19M, P25685",-0.199 ± 0.1
18,"DnaJ homolog subfamily B member 1 R13C, P25685",-0.262 ± 0.12
19,"DnaJ homolog subfamily B member 1 E50S, P25685",-0.211 ± 0.066
20,"DnaJ homolog subfamily B member 1 R61V, P25685",-0.429 ± 0.077
21,"DnaJ homolog subfamily B member 1 R26I, P25685",0.071 ± 0.16
22,"DnaJ homolog subfamily B member 1 D57N, P25685",-0.071 ± 0.29
23,"DnaJ homolog subfamily B member 1 L11A, P25685",-0.147 ± 0.078
24,"DnaJ homolog subfamily B member 1 E62Q, P25685",-0.353 ± 0.12
25,"DnaJ homolog subfamily B member 1 R13E, P25685",-0.142 ± 0.089
26,"DnaJ homolog subfamily B member 1 V54L, P25685",-0.171 ± 0.076

row,Substance,abundance fitness
1,"DnaJ homolog subfamily B member 1 K35V, P25685",-0.396 ± 0.1
2,"DnaJ homolog subfamily B member 1 K46G, P25685",-0.016 ± 0.16
3,"DnaJ homolog subfamily B member 1 S16P, P25685",-0.123 ± 0.062
4,"DnaJ homolog subfamily B member 1 S16I, P25685",-0.371 ± 0.11
5,"DnaJ homolog subfamily B member 1 L11H, P25685",-0.795 ± 0.15
6,"DnaJ homolog subfamily B member 1 A23Q, P25685",-0.241 ± 0.13
7,"DnaJ homolog subfamily B member 1 E50F, P25685",-0.612 ± 0.19
8,"DnaJ homolog subfamily B member 1 F45G, P25685",-0.247 ± 0.089
9,"DnaJ homolog subfamily B member 1 A28T, P25685",-0.094 ± 0.1
10,"DnaJ homolog subfamily B member 1 A51Q, P25685",-0.755 ± 0.086
11,"DnaJ homolog subfamily B member 1 I20D, P25685",-0.766 ± 0.17
12,"DnaJ homolog subfamily B member 1 L29H, P25685",-0.015 ± 0.12
13,"DnaJ homolog subfamily B member 1 R26P, P25685",-0.628 ± 0.1
14,"DnaJ homolog subfamily B member 1 Y31E, P25685",-0.294 ± 0.089
15,"DnaJ homolog subfamily B member 1 P33Q, P25685",0.057 ± 0.1
16,"DnaJ homolog subfamily B member 1 G40K, P25685",0.005 ± 0.15
17,"DnaJ homolog subfamily B member 1 Q27M, P25685",-0.054 ± 0.14
18,"DnaJ homolog subfamily B member 1 Y5L, P25685",-0.284 ± 0.14
19,"DnaJ homolog subfamily B member 1 A12C, P25685",-0.213 ± 0.14
20,"DnaJ homolog subfamily B member 1 D34G, P25685",-0.012 ± 0.11
21,"DnaJ homolog subfamily B member 1 P58F, P25685",-0.407 ± 0.25
22,"DnaJ homolog subfamily B member 1 D4V, P25685",-0.433 ± 0.13
23,"DnaJ homolog subfamily B member 1 E62V, P25685",-0.218 ± 0.12
24,"DnaJ homolog subfamily B member 1 A23P, P25685",-0.917 ± 0.095
25,"DnaJ homolog subfamily B member 1 Q7L, P25685",-0.049 ± 0.057
26,"DnaJ homolog subfamily B member 1 F45C, P25685",-0.351 ± 0.12

row,Substance,abundance fitness
1,"DnaJ homolog subfamily B member 1 R30S, P25685",-0.024 ± 0.073
2,"DnaJ homolog subfamily B member 1 F45L, P25685",-0.21 ± 0.055
3,"DnaJ homolog subfamily B member 1 E18G, P25685",-0.162 ± 0.066
4,"DnaJ homolog subfamily B member 1 A51I, P25685",-0.977 ± 0.17
5,"DnaJ homolog subfamily B member 1 A41R, P25685",-0.181 ± 0.07
6,"DnaJ homolog subfamily B member 1 A49G, P25685",-0.187 ± 0.12
7,"DnaJ homolog subfamily B member 1 I48C, P25685",-0.073 ± 0.11
8,"DnaJ homolog subfamily B member 1 Y6Q, P25685",-0.742 ± 0.13
9,"DnaJ homolog subfamily B member 1 D53G, P25685",-0.098 ± 0.15
10,"DnaJ homolog subfamily B member 1 Y24L, P25685",-0.492 ± 0.061
11,"DnaJ homolog subfamily B member 1 K35F, P25685",-0.614 ± 0.11
12,"DnaJ homolog subfamily B member 1 L55N, P25685",-0.603 ± 0.17
13,"DnaJ homolog subfamily B member 1 G14P, P25685",-0.347 ± 0.12
14,"DnaJ homolog subfamily B member 1 L11E, P25685",-0.5 ± 0.15
15,"DnaJ homolog subfamily B member 1 L55I, P25685",-0.354 ± 0.11
16,"DnaJ homolog subfamily B member 1 A51L, P25685",-1.06 ± 0.082
17,"DnaJ homolog subfamily B member 1 R30T, P25685",-0.026 ± 0.1
18,"DnaJ homolog subfamily B member 1 D4P, P25685",-0.712 ± 0.16
19,"DnaJ homolog subfamily B member 1 Q27G, P25685",-0.277 ± 0.093
20,"DnaJ homolog subfamily B member 1 R59I, P25685",-0.232 ± 0.15
21,"DnaJ homolog subfamily B member 1 D4F, P25685",-0.608 ± 0.48
22,"DnaJ homolog subfamily B member 1 K37I, P25685",-0.304 ± 0.12
23,"DnaJ homolog subfamily B member 1 L9Y, P25685",-0.818 ± 0.11
24,"DnaJ homolog subfamily B member 1 A41I, P25685",-0.132 ± 0.17
25,"DnaJ homolog subfamily B member 1 R61G, P25685",-0.406 ± 0.1
26,"DnaJ homolog subfamily B member 1 I63R, P25685",0.044 ± 0.074

row,Substance,abundance fitness
1,"DnaJ homolog subfamily B member 1 I20A, P25685",-0.63 ± 0.092
2,"DnaJ homolog subfamily B member 1 R59H, P25685",-0.167 ± 0.11
3,"DnaJ homolog subfamily B member 1 I63T, P25685",0.588 ± 0.081
4,"DnaJ homolog subfamily B member 1 P33G, P25685",0.017 ± 0.064
5,"DnaJ homolog subfamily B member 1 A12R, P25685",-0.147 ± 0.07
6,"DnaJ homolog subfamily B member 1 I20F, P25685",-0.708 ± 0.1
7,"DnaJ homolog subfamily B member 1 E50A, P25685",-0.241 ± 0.11
8,"DnaJ homolog subfamily B member 1 P39R, P25685",0.041 ± 0.1
9,"DnaJ homolog subfamily B member 1 G10E, P25685",0.073 ± 0.2
10,"DnaJ homolog subfamily B member 1 V54P, P25685",-0.699 ± 0.059
11,"DnaJ homolog subfamily B member 1 E47F, P25685",-0.277 ± 0.098
12,"DnaJ homolog subfamily B member 1 R30Q, P25685",0.087 ± 0.11
13,"DnaJ homolog subfamily B member 1 P33F, P25685",-0.207 ± 0.093
14,"DnaJ homolog subfamily B member 1 Y31D, P25685",-0.27 ± 0.16
15,"DnaJ homolog subfamily B member 1 R26T, P25685",-0.128 ± 0.12
16,"DnaJ homolog subfamily B member 1 E18L, P25685",-0.21 ± 0.071
17,"DnaJ homolog subfamily B member 1 L11R, P25685",-0.96 ± 0.075
18,"DnaJ homolog subfamily B member 1 S56V, P25685",-0.071 ± 0.066
19,"DnaJ homolog subfamily B member 1 K35E, P25685",-0.285 ± 0.088
20,"DnaJ homolog subfamily B member 1 F45W, P25685",0 ± 0.099
21,"DnaJ homolog subfamily B member 1 P33V, P25685",-0.078 ± 0.076
22,"DnaJ homolog subfamily B member 1 V54W, P25685",-0.185 ± 0.16
23,"DnaJ homolog subfamily B member 1 S16L, P25685",-0.297 ± 0.053
24,"DnaJ homolog subfamily B member 1 R13V, P25685",-0.157 ± 0.065
25,"DnaJ homolog subfamily B member 1 E62G, P25685",-0.272 ± 0.15
